According to patent US12679878B2, “CRF2 receptor agonists and their use in therapy” (SANOFI, priority 2020, dated 2026):
Starred links: 1 amine or outer side, 2 acyl side, 3 side chain; linkers in the order of their positions; H or OH if unused. Non-standard residues stand in square brackets, D forms with d. Groups on a side chain read outwards from the residue. No end group written: not given here. *: point of attachment. C18 diacid = O=C(O)CCCCCCCCCCCCCCCCC(=O)*; γGlu = O=C(O)[C@H](CCC(=O)[*:2])N[*:1]; AEEA = NCCOCCOCC(=O)O; Aib = CC(C)(N)C(=O)O

B1: SEQ ID NO: 106 (peptide)
peptide: IVLSLDVPIKLK([AEEA-AEEA-γGlu-C18 diacid])QILLEQERQK[Aib]QREQAETNKQILERV-NH2
modifications: N-terminus assumed
SMILES: CC[C@H](C)[C@H](N)C(=O)N[C@H](C(=O)N[C@@H](CC(C)C)C(=O)N[C@@H](CO)C(=O)N[C@@H](CC(C)C)C(=O)N[C@@H](CC(=O)O)C(=O)N[C@H](C(=O)N1CCC[C@H]1C(=O)N[C@H](C(=O)N[C@@H](CCCCN)C(=O)N[C@@H](CC(C)C)C(=O)N[C@@H](CCCCNC(=O)COCCOCCNC(=O)COCCOCCNC(=O)CC[C@H](NC(=O)CCCCCCCCCCCCCCCCC(=O)O)C(=O)O)C(=O)N[C@@H](CCC(N)=O)C(=O)N[C@H](C(=O)N[C@@H](CC(C)C)C(=O)N[C@@H](CC(C)C)C(=O)N[C@@H](CCC(=O)O)C(=O)N[C@@H](CCC(N)=O)C(=O)N[C@@H](CCC(=O)O)C(=O)N[C@@H](CCCNC(=N)N)C(=O)N[C@@H](CCC(N)=O)C(=O)N[C@@H](CCCCN)C(=O)NC(C)(C)C(=O)N[C@@H](CCC(N)=O)C(=O)N[C@@H](CCCNC(=N)N)C(=O)N[C@@H](CCC(=O)O)C(=O)N[C@@H](CCC(N)=O)C(=O)N[C@@H](C)C(=O)N[C@@H](CCC(=O)O)C(=O)N[C@H](C(=O)N[C@@H](CC(N)=O)C(=O)N[C@@H](CCCCN)C(=O)N[C@@H](CCC(N)=O)C(=O)N[C@H](C(=O)N[C@@H](CC(C)C)C(=O)N[C@@H](CCC(=O)O)C(=O)N[C@@H](CCCNC(=N)N)C(=O)N[C@H](C(N)=O)C(C)C)[C@@H](C)CC)[C@@H](C)O)[C@@H](C)CC)[C@@H](C)CC)C(C)C)C(C)C
B2: SEQ ID NO: 108 (peptide)
peptide: IVLSLDVPIKLK([AEEA-AEEA-γGlu-C18 diacid])QILLKQERQK[Aib]QRQKAETNKQILAQV-NH2
modifications: N-terminus assumed
SMILES: CC[C@H](C)[C@H](N)C(=O)N[C@H](C(=O)N[C@@H](CC(C)C)C(=O)N[C@@H](CO)C(=O)N[C@@H](CC(C)C)C(=O)N[C@@H](CC(=O)O)C(=O)N[C@H](C(=O)N1CCC[C@H]1C(=O)N[C@H](C(=O)N[C@@H](CCCCN)C(=O)N[C@@H](CC(C)C)C(=O)N[C@@H](CCCCNC(=O)COCCOCCNC(=O)COCCOCCNC(=O)CC[C@H](NC(=O)CCCCCCCCCCCCCCCCC(=O)O)C(=O)O)C(=O)N[C@@H](CCC(N)=O)C(=O)N[C@H](C(=O)N[C@@H](CC(C)C)C(=O)N[C@@H](CC(C)C)C(=O)N[C@@H](CCCCN)C(=O)N[C@@H](CCC(N)=O)C(=O)N[C@@H](CCC(=O)O)C(=O)N[C@@H](CCCNC(=N)N)C(=O)N[C@@H](CCC(N)=O)C(=O)N[C@@H](CCCCN)C(=O)NC(C)(C)C(=O)N[C@@H](CCC(N)=O)C(=O)N[C@@H](CCCNC(=N)N)C(=O)N[C@@H](CCC(N)=O)C(=O)N[C@@H](CCCCN)C(=O)N[C@@H](C)C(=O)N[C@@H](CCC(=O)O)C(=O)N[C@H](C(=O)N[C@@H](CC(N)=O)C(=O)N[C@@H](CCCCN)C(=O)N[C@@H](CCC(N)=O)C(=O)N[C@H](C(=O)N[C@@H](CC(C)C)C(=O)N[C@@H](C)C(=O)N[C@@H](CCC(N)=O)C(=O)N[C@H](C(N)=O)C(C)C)[C@@H](C)CC)[C@@H](C)O)[C@@H](C)CC)[C@@H](C)CC)C(C)C)C(C)C
B3: SEQ ID NO: 110 (peptide)
peptide: IVLSLDVPIKLK([AEEA-AEEA-γGlu-C18 diacid])QILLKQERQK[Aib]QRQQAETNKQILAQV-NH2
modifications: N-terminus assumed
SMILES: CC[C@H](C)[C@H](N)C(=O)N[C@H](C(=O)N[C@@H](CC(C)C)C(=O)N[C@@H](CO)C(=O)N[C@@H](CC(C)C)C(=O)N[C@@H](CC(=O)O)C(=O)N[C@H](C(=O)N1CCC[C@H]1C(=O)N[C@H](C(=O)N[C@@H](CCCCN)C(=O)N[C@@H](CC(C)C)C(=O)N[C@@H](CCCCNC(=O)COCCOCCNC(=O)COCCOCCNC(=O)CC[C@H](NC(=O)CCCCCCCCCCCCCCCCC(=O)O)C(=O)O)C(=O)N[C@@H](CCC(N)=O)C(=O)N[C@H](C(=O)N[C@@H](CC(C)C)C(=O)N[C@@H](CC(C)C)C(=O)N[C@@H](CCCCN)C(=O)N[C@@H](CCC(N)=O)C(=O)N[C@@H](CCC(=O)O)C(=O)N[C@@H](CCCNC(=N)N)C(=O)N[C@@H](CCC(N)=O)C(=O)N[C@@H](CCCCN)C(=O)NC(C)(C)C(=O)N[C@@H](CCC(N)=O)C(=O)N[C@@H](CCCNC(=N)N)C(=O)N[C@@H](CCC(N)=O)C(=O)N[C@@H](CCC(N)=O)C(=O)N[C@@H](C)C(=O)N[C@@H](CCC(=O)O)C(=O)N[C@H](C(=O)N[C@@H](CC(N)=O)C(=O)N[C@@H](CCCCN)C(=O)N[C@@H](CCC(N)=O)C(=O)N[C@H](C(=O)N[C@@H](CC(C)C)C(=O)N[C@@H](C)C(=O)N[C@@H](CCC(N)=O)C(=O)N[C@H](C(N)=O)C(C)C)[C@@H](C)CC)[C@@H](C)O)[C@@H](C)CC)[C@@H](C)CC)C(C)C)C(C)C
B4: SEQ ID NO: 107 (peptide)
peptide: IVLSLDVPIKLK([AEEA-AEEA-γGlu-C18 diacid])QILLKQERQK[Aib]QREQAETNKQILERV-NH2
modifications: N-terminus assumed
SMILES: CC[C@H](C)[C@H](N)C(=O)N[C@H](C(=O)N[C@@H](CC(C)C)C(=O)N[C@@H](CO)C(=O)N[C@@H](CC(C)C)C(=O)N[C@@H](CC(=O)O)C(=O)N[C@H](C(=O)N1CCC[C@H]1C(=O)N[C@H](C(=O)N[C@@H](CCCCN)C(=O)N[C@@H](CC(C)C)C(=O)N[C@@H](CCCCNC(=O)COCCOCCNC(=O)COCCOCCNC(=O)CC[C@H](NC(=O)CCCCCCCCCCCCCCCCC(=O)O)C(=O)O)C(=O)N[C@@H](CCC(N)=O)C(=O)N[C@H](C(=O)N[C@@H](CC(C)C)C(=O)N[C@@H](CC(C)C)C(=O)N[C@@H](CCCCN)C(=O)N[C@@H](CCC(N)=O)C(=O)N[C@@H](CCC(=O)O)C(=O)N[C@@H](CCCNC(=N)N)C(=O)N[C@@H](CCC(N)=O)C(=O)N[C@@H](CCCCN)C(=O)NC(C)(C)C(=O)N[C@@H](CCC(N)=O)C(=O)N[C@@H](CCCNC(=N)N)C(=O)N[C@@H](CCC(=O)O)C(=O)N[C@@H](CCC(N)=O)C(=O)N[C@@H](C)C(=O)N[C@@H](CCC(=O)O)C(=O)N[C@H](C(=O)N[C@@H](CC(N)=O)C(=O)N[C@@H](CCCCN)C(=O)N[C@@H](CCC(N)=O)C(=O)N[C@H](C(=O)N[C@@H](CC(C)C)C(=O)N[C@@H](CCC(=O)O)C(=O)N[C@@H](CCCNC(=N)N)C(=O)N[C@H](C(N)=O)C(C)C)[C@@H](C)CC)[C@@H](C)O)[C@@H](C)CC)[C@@H](C)CC)C(C)C)C(C)C
B5: SEQ ID NO: 112 (peptide)
peptide: IVLSLDVPIKLK([AEEA-AEEA-γGlu-C18 diacid])QILLKQERQKKQREKAETNKQILAQV-NH2
modifications: N-terminus assumed
SMILES: CC[C@H](C)[C@H](N)C(=O)N[C@H](C(=O)N[C@@H](CC(C)C)C(=O)N[C@@H](CO)C(=O)N[C@@H](CC(C)C)C(=O)N[C@@H](CC(=O)O)C(=O)N[C@H](C(=O)N1CCC[C@H]1C(=O)N[C@H](C(=O)N[C@@H](CCCCN)C(=O)N[C@@H](CC(C)C)C(=O)N[C@@H](CCCCNC(=O)COCCOCCNC(=O)COCCOCCNC(=O)CC[C@H](NC(=O)CCCCCCCCCCCCCCCCC(=O)O)C(=O)O)C(=O)N[C@@H](CCC(N)=O)C(=O)N[C@H](C(=O)N[C@@H](CC(C)C)C(=O)N[C@@H](CC(C)C)C(=O)N[C@@H](CCCCN)C(=O)N[C@@H](CCC(N)=O)C(=O)N[C@@H](CCC(=O)O)C(=O)N[C@@H](CCCNC(=N)N)C(=O)N[C@@H](CCC(N)=O)C(=O)N[C@@H](CCCCN)C(=O)N[C@@H](CCCCN)C(=O)N[C@@H](CCC(N)=O)C(=O)N[C@@H](CCCNC(=N)N)C(=O)N[C@@H](CCC(=O)O)C(=O)N[C@@H](CCCCN)C(=O)N[C@@H](C)C(=O)N[C@@H](CCC(=O)O)C(=O)N[C@H](C(=O)N[C@@H](CC(N)=O)C(=O)N[C@@H](CCCCN)C(=O)N[C@@H](CCC(N)=O)C(=O)N[C@H](C(=O)N[C@@H](CC(C)C)C(=O)N[C@@H](C)C(=O)N[C@@H](CCC(N)=O)C(=O)N[C@H](C(N)=O)C(C)C)[C@@H](C)CC)[C@@H](C)O)[C@@H](C)CC)[C@@H](C)CC)C(C)C)C(C)C
B6: SEQ ID NO: 109 (peptide)
peptide: IVLSLDVPIKLK([AEEA-AEEA-γGlu-C18 diacid])QILLKQERQK[Aib]QREKAETNKQILAQV-NH2
modifications: N-terminus assumed
SMILES: CC[C@H](C)[C@H](N)C(=O)N[C@H](C(=O)N[C@@H](CC(C)C)C(=O)N[C@@H](CO)C(=O)N[C@@H](CC(C)C)C(=O)N[C@@H](CC(=O)O)C(=O)N[C@H](C(=O)N1CCC[C@H]1C(=O)N[C@H](C(=O)N[C@@H](CCCCN)C(=O)N[C@@H](CC(C)C)C(=O)N[C@@H](CCCCNC(=O)COCCOCCNC(=O)COCCOCCNC(=O)CC[C@H](NC(=O)CCCCCCCCCCCCCCCCC(=O)O)C(=O)O)C(=O)N[C@@H](CCC(N)=O)C(=O)N[C@H](C(=O)N[C@@H](CC(C)C)C(=O)N[C@@H](CC(C)C)C(=O)N[C@@H](CCCCN)C(=O)N[C@@H](CCC(N)=O)C(=O)N[C@@H](CCC(=O)O)C(=O)N[C@@H](CCCNC(=N)N)C(=O)N[C@@H](CCC(N)=O)C(=O)N[C@@H](CCCCN)C(=O)NC(C)(C)C(=O)N[C@@H](CCC(N)=O)C(=O)N[C@@H](CCCNC(=N)N)C(=O)N[C@@H](CCC(=O)O)C(=O)N[C@@H](CCCCN)C(=O)N[C@@H](C)C(=O)N[C@@H](CCC(=O)O)C(=O)N[C@H](C(=O)N[C@@H](CC(N)=O)C(=O)N[C@@H](CCCCN)C(=O)N[C@@H](CCC(N)=O)C(=O)N[C@H](C(=O)N[C@@H](CC(C)C)C(=O)N[C@@H](C)C(=O)N[C@@H](CCC(N)=O)C(=O)N[C@H](C(N)=O)C(C)C)[C@@H](C)CC)[C@@H](C)O)[C@@H](C)CC)[C@@H](C)CC)C(C)C)C(C)C

target: human corticotropin-releasing factor 2α (CRF2 α receptor) (human), Q13324; assay: cell-based or functional assay
Sequence (Q13324 20-411): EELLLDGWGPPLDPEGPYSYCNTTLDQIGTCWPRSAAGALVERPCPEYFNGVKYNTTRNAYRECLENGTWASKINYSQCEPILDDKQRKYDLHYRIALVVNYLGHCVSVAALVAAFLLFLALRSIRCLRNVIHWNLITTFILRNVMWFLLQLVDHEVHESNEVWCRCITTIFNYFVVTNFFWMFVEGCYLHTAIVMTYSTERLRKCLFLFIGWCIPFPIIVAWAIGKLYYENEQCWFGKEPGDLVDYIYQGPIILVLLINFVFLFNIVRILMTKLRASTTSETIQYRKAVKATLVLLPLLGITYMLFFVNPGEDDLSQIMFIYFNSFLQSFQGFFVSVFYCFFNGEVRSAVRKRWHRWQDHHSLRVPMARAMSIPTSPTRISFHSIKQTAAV

Which EC50 [nM], 0% HSA does the source give for B1 here?
The EC50 [nM], 0% HSA was 0.53 nM.

What about the EC50 [nM], 0.1% HSA of the same binder?
Its EC50 [nM], 0.1% HSA is 13.2 nM.

B2 was tested. Which EC50 [nM], 0% HSA did it give?
Its EC50 [nM], 0% HSA is 0.23 nM.

For B3, which EC50 [nM], 0% HSA is on record?
Its EC50 [nM], 0% HSA is 0.18 nM.

For B4, which EC50 [nM], 0% HSA is on record?
Its EC50 [nM], 0% HSA is 0.81 nM.

What about the EC50 [nM], 0.1% HSA of the same binder?
The EC50 [nM], 0.1% HSA was 16.1 nM.

How did the EC50 [nM], 0% HSA turn out when B5 was run?
The EC50 [nM], 0% HSA was 0.66 nM.

What about the EC50 [nM], 0.1% HSA of the same binder?
The EC50 [nM], 0.1% HSA was 68.9 nM.

Which EC50 [nM], 0% HSA does the source give for B6 here?
Its EC50 [nM], 0% HSA is 0.95 nM.
